T1: CD32aH (FcγRIIaH) (UniProt P12318 34-217)
T1 chain: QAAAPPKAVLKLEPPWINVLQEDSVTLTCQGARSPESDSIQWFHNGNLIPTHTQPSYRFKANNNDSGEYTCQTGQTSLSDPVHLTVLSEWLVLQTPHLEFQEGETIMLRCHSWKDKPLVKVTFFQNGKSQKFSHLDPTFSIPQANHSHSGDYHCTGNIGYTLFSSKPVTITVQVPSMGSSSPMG

T2: CD32bF (FcγRIIbF) (UniProt P31994 43-217)
T2 chain: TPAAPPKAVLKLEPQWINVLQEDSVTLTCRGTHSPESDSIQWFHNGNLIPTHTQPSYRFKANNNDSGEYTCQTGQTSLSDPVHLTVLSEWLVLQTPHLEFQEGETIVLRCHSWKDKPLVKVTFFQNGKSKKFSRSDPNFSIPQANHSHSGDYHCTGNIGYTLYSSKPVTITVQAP

T3: FcγRIA (CD64) (UniProt P12314 16-292)
T3 chain: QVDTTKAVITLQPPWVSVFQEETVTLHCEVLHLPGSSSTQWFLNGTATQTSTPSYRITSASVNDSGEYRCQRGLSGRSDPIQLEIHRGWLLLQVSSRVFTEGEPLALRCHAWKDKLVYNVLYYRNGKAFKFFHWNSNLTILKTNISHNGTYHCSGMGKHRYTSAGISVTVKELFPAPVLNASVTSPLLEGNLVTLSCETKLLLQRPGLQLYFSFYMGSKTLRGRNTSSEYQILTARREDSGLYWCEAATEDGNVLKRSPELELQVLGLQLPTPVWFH

B1: D1.1 (ligand)
chain: MIETYNQTSPRSAATGLPISMKIFMYLLTVFLITQMIGSALFAVYLHRRLDKIEDERNLHEDFVFMKTIQRCNTGERSLSLLNCEEIKSQFEGFVKDIMLNKEETKKENSFEMQKGDQNPQIAAHVISEASSKTTSVLQWAEKGYYTMSNNLVTLENGKQLTVKRQGLYYIYAQVTFCSNREASSQAPFIASLCLKSPGRFERILLRAANTHSSAKPCGQQSIHLGGVFELQPGASVFVNVTDPSQVSHGTGFTSFGLLKL
B2: TNX02 anti-CD154 monoclonal antibody (antibody)
heavy: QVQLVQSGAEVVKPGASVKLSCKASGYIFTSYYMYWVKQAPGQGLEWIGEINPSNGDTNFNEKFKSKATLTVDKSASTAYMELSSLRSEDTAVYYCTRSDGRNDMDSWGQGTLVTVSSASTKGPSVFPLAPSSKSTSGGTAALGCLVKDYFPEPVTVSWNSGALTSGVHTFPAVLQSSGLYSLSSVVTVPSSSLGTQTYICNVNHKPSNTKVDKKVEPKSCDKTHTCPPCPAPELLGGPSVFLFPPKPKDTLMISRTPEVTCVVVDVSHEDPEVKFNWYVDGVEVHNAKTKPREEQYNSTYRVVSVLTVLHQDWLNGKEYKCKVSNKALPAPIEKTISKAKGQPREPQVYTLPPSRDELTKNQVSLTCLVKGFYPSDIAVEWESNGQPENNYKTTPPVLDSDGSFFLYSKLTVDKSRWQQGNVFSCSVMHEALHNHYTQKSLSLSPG
light: DIVLTQSPATLSVSPGERATISCRASQRVSSSTYSYMHWYQQKPGQPPKLLIKYASNLESGVPARFSGSGSGTDFTLTISSVEPEDFATYYCQHSWEIPPTFGGGTKLEIKRTVAAPSVFIFPPSDEQLKSGTASVVCLLNNFYPREAKVQWKVDNALQSGNSQESVTEQDSKDSTYSLSSTLTLSKADYEKHKVYACEVTHQGLSSPVTKSFNRGEC
B3: TNX08 anti-CD154 monoclonal antibody (antibody)
heavy: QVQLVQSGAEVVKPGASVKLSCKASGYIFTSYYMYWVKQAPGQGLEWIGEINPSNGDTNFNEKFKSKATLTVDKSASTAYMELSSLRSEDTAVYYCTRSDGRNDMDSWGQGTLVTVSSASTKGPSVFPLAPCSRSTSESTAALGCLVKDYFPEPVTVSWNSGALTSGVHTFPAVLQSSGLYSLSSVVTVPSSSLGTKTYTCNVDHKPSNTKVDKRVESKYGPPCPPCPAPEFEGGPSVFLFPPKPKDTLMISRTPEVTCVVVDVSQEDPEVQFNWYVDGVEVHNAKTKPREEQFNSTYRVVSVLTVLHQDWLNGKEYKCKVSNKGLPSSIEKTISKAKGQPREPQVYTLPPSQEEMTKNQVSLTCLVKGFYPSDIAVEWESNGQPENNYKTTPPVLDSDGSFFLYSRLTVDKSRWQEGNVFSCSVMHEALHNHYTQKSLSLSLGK
light: B2 light
B4: TNX12 anti-CD154 monoclonal antibody (antibody)
heavy: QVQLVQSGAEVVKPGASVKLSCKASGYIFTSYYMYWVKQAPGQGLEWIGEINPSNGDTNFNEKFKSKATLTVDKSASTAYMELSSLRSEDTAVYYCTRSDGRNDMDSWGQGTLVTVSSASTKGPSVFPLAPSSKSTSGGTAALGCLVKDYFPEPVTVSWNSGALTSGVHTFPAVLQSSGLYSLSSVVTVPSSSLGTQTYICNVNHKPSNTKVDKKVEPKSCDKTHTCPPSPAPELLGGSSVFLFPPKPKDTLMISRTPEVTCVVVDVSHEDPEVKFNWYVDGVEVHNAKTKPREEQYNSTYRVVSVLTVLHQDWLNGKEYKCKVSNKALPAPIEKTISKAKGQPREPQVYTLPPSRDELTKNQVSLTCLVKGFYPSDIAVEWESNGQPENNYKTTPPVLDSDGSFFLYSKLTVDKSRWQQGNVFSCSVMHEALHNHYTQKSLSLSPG
light: B2 light
B5: TNX06 anti-CD154 monoclonal antibody (antibody)
heavy: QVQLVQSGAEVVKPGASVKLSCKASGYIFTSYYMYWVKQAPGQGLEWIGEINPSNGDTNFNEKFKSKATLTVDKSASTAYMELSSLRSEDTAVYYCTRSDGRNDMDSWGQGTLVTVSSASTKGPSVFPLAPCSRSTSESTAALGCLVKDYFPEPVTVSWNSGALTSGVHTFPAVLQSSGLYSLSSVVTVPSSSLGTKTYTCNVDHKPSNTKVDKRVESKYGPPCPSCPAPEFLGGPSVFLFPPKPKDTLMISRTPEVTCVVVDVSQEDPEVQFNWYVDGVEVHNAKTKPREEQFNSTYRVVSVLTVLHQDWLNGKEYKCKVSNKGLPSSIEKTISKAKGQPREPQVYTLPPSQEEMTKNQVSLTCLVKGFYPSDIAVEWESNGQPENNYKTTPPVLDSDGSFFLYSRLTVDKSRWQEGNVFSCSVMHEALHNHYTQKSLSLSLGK
light: B2 light
B6: TNX09 anti-CD154 monoclonal antibody (antibody)
heavy: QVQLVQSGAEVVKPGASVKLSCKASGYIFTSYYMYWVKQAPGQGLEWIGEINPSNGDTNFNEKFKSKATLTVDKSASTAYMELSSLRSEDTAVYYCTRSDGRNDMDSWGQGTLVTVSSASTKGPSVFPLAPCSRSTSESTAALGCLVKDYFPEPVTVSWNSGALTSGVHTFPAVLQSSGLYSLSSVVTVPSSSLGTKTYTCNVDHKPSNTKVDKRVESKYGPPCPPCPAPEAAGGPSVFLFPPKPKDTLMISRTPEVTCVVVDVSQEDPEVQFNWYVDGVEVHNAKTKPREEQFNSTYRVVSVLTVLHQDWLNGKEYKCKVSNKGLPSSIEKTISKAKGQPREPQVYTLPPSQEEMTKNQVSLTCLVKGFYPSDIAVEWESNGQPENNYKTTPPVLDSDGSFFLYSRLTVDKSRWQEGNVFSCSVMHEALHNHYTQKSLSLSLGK
light: B2 light
B7: TNX13 anti-CD154 monoclonal antibody (antibody)
heavy: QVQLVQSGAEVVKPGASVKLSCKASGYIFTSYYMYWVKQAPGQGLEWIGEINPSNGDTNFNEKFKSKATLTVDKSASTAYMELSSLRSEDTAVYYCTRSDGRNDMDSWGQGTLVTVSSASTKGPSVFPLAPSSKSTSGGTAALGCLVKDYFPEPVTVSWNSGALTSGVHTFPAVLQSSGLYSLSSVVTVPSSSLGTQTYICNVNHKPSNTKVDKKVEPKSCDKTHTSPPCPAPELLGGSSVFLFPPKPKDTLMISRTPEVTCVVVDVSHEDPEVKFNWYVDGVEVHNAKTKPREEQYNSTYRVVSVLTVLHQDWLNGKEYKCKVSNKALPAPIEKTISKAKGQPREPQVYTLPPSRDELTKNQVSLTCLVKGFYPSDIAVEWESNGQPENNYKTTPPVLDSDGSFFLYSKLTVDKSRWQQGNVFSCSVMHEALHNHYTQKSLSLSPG
light: B2 light
B8: TNX07 anti-CD154 monoclonal antibody (antibody)
heavy: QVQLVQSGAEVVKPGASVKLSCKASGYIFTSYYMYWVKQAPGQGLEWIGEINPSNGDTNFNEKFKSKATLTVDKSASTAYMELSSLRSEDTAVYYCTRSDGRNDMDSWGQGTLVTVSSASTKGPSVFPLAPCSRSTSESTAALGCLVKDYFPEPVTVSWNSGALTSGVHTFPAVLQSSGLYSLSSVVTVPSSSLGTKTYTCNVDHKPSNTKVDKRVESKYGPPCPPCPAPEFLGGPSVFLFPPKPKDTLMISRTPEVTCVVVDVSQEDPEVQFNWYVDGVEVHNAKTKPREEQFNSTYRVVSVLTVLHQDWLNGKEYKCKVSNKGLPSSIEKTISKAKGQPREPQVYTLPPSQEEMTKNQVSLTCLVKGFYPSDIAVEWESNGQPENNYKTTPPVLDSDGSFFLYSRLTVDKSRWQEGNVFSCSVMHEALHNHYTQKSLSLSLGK
light: B2 light
B9: TNX10 anti-CD154 monoclonal antibody (antibody)
heavy: not shown
light: B2 light
B10: TNX11 anti-CD154 monoclonal antibody (antibody)
heavy: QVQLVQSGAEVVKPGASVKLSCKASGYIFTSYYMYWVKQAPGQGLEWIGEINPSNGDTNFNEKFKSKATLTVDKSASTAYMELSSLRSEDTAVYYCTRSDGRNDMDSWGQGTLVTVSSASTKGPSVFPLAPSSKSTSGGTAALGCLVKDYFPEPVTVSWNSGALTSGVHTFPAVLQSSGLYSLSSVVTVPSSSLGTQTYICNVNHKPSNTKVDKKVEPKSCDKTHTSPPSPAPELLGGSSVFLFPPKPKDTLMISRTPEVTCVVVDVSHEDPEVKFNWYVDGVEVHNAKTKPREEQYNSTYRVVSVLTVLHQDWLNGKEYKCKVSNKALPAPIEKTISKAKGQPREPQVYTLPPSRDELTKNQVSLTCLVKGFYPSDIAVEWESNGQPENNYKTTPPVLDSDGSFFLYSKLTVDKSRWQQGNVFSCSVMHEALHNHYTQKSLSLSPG
light: B2 light
B11: TNX05 anti-CD154 monoclonal antibody (antibody)
heavy: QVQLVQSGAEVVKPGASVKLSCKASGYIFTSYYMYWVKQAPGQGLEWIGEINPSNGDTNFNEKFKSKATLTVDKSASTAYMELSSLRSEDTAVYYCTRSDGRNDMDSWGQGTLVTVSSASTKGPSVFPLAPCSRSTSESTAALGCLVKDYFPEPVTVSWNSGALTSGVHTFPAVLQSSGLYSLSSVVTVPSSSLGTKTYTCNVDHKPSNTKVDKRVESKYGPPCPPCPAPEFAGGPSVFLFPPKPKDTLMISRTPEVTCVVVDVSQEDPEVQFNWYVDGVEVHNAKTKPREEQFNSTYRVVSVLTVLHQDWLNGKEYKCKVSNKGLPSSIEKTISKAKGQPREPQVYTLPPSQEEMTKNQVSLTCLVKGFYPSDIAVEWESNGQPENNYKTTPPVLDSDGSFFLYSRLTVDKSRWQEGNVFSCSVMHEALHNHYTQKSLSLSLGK
light: B2 light
B12: TNX03 anti-CD154 monoclonal antibody (antibody)
heavy: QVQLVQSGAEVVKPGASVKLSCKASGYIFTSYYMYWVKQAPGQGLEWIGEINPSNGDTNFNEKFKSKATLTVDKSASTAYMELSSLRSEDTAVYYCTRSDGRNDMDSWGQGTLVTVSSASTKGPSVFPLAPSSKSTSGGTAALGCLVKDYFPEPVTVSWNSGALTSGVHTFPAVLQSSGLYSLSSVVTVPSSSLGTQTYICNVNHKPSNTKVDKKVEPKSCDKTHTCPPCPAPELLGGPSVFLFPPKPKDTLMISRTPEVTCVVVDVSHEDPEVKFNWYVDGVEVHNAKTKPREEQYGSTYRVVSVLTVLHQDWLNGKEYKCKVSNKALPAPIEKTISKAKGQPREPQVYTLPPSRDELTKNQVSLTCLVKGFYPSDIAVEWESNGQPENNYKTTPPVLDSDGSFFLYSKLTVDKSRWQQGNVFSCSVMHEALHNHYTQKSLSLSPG
light: B2 light
B13: TNX01 anti-CD154 monoclonal antibody (antibody)
heavy: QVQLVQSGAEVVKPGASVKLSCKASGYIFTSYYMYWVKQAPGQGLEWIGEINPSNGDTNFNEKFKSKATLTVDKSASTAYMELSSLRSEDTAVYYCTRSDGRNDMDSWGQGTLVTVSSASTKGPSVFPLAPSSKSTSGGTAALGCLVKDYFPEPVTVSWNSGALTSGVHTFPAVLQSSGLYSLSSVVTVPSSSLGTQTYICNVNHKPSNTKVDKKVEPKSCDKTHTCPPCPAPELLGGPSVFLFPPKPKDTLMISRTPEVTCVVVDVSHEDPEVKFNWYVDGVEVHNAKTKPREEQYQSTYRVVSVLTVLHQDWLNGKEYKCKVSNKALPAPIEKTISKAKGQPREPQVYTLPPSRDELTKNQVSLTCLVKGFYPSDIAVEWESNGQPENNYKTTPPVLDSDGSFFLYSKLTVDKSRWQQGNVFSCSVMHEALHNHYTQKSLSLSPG
light: B2 light
B14: TNX04 anti-CD154 monoclonal antibody (antibody)
heavy: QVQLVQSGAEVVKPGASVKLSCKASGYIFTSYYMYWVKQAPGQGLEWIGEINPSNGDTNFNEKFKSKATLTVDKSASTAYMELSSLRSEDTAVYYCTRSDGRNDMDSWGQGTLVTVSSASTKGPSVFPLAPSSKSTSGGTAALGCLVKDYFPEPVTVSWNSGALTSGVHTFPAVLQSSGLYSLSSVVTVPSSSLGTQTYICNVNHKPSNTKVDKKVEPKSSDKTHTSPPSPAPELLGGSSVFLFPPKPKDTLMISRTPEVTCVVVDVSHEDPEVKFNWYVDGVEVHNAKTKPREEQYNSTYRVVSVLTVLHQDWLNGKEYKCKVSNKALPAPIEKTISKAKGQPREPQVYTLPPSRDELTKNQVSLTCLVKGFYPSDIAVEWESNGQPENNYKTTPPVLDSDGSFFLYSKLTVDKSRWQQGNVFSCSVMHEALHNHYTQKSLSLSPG
light: B2 light

The binders below were run against Mouse_anti-CD40L (assay: flow cytometry).

In the case of B1, the Kd is reported as 0.000339 µM.

Each binder was assayed against Mouse anti hCD40L (assay: FACS cell binding; apparent Kd).

B1 showed a Kd of 0.00039 µM.

These binders were tested against T4, CD16aF (FcγRIIIaF) (UniProt P08637 17-208) (assay: SPR).
T4 sequence (P08637 17-208): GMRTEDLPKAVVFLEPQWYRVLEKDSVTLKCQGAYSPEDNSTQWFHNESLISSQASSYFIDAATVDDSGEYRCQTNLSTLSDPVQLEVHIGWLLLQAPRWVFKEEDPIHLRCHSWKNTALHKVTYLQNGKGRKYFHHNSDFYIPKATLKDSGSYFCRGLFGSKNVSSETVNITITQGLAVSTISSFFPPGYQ

First: B2
Second: B3
The Kd of the first is 2.5-fold lower: 1.81 µM for the first, 4.44 µM for the second.

Going from B4 to B5, the Kd falls from > 5 µM to 3.17 µM.

B6 and B7 cannot be ordered by Kd: > 5 µM for the first, > 5 µM for the second.

Going from B8 to B9, the Kd rises from 3.66 µM to > 5 µM. The first binds more tightly here.

With B10 the Kd was > 5 µM.

Each binder was assayed against T5, CD16aV (FcγRIIIaV) (UniProt P08637 17-208) (assay: SPR).
T5 sequence (P08637 17-208 F176V): as the sequence (P08637 17-208) above, with F160V counted along it

Going from B2 to B3, the Kd rises from 0.333 µM to 3.56 µM (11-fold). The first binds more tightly here.

Compared with B4, B5 is lower in Kd: > 5 µM for the first, 2.09 µM for the second.

Compared with B6, B7 is higher in Kd: 3.77 µM for the first, > 5 µM for the second.

Compared with B8, B9 is 1.5-fold higher in Kd: 3.01 µM for the first, 4.63 µM for the second.

For B10, the Kd was > 5 µM.

Molecular target: T1, CD32aH (FcγRIIaH)
Experiment: SPR

First: B2
Second: B3
The Kd of the first is 17-fold lower: 0.525 µM for the first, 9.03 µM for the second.

Going from B4 to B5, the Kd falls from > 12 µM to 3.19 µM.

First: B6
Second: B7
The Kd of the first is higher: > 12 µM for the first, 8.95 µM for the second. The second binds more tightly here.

Going from B8 to B9, the Kd rises from 3.01 µM to > 12 µM.

B10 was tested, and the Kd was > 12 µM.

Molecular target: T2, CD32bF (FcγRIIbF)
Experiment: SPR

Compared with B2, B3 is 4.1-fold higher in Kd: 1.03 µM for the first, 4.2 µM for the second. The first binds more tightly here.

Compared with B4, B5 is 3.3-fold lower in Kd: 8.41 µM for the first, 2.53 µM for the second.

First: B6
Second: B7
The Kd of the first is higher: > 12 µM for the first, 5.84 µM for the second.

Compared with B8, B9 is higher in Kd: 2.45 µM for the first, > 12 µM for the second. The first binds more tightly here.

B10 was tested, and the Kd was > 12 µM.

Molecular target: T3, FcγRIA (CD64)
Experiment: SPR

First: B3
Second: B4
The Kd of the first is 400-fold higher: 0.103 µM for the first, 0.000259 µM for the second.

First: B5
Second: B6
The Kd of the first is 520-fold lower: 0.000285 µM for the first, 0.147 µM for the second. The first binds more tightly here.

B7 and B8 are within 1.5-fold of each other in Kd: 0.000222 µM for the first, 0.000253 µM for the second.

First: B9
Second: B10
The Kd of the first is 140-fold higher: 0.0687 µM for the first, 0.000479 µM for the second. The second binds more tightly here.

Molecular target: T3, FcγRIA (CD64)
Experiment: SPR; avid

Going from B11 to B12, the Kd rises from 0.0087 µM to 0.092 µM (11-fold). The first binds more tightly here.

First: B13
Second: B14
The Kd of the first is 230-fold higher: 0.0765 µM for the first, 0.00033 µM for the second.

Molecular target: T4, CD16aF (FcγRIIIaF)
Experiment: SPR
Remark: another data set of the same source

First: B2
Second: B11
The Kd of the first is 4.8-fold lower: 1.7 µM for the first, 8.11 µM for the second.

B12 and B13 cannot be ordered by Kd: > 5 µM for the first, > 5 µM for the second.

For B14, the Kd was > 5 µM.

Molecular target: T5, CD16aV (FcγRIIIaV)
Experiment: SPR
Remark: another data set of the same source

Going from B2 to B11, the Kd rises from 0.32 µM to 6.04 µM (19-fold).

B12 and B13 cannot be ordered by Kd: > 5 µM for the first, > 5 µM for the second.

In the case of B14, the Kd is reported as 18.7 µM.

Molecular target: T1, CD32aH (FcγRIIaH)
Experiment: SPR
Remark: another data set of the same source

Going from B2 to B11, the Kd rises from 0.5 µM to 7.17 µM (14-fold).

B12 and B13 cannot be ordered by Kd: > 12 µM for the first, > 12 µM for the second.

Binder B14 has a Kd of 36.6 µM.

Molecular target: T2, CD32bF (FcγRIIbF)
Experiment: SPR
Remark: another data set of the same source

Compared with B2, B11 is 5.4-fold higher in Kd: 0.91 µM for the first, 4.9 µM for the second.

B12 and B13 cannot be ordered by Kd: > 12 µM for the first, > 12 µM for the second.

With B14 the Kd was 18 µM.

Molecular target: T3, FcγRIA (CD64)
Experiment: SPR; avid
Remark: another data set of the same source

Going from B2 to B11, the Kd rises from 0.0288 nM to 8.8 nM (310-fold).

First: B12
Second: B13
The Kd of the first is 1.6-fold higher: 89.8 nM for the first, 56 nM for the second.

In the case of B14, the Kd is reported as 0.309 nM.

Source: US20220380478A1 (published 2022)
